Assay results: the DeepSol protein solubility set

assay: soluble on expression in E. coli; label from the status in PepcDB or PDB records

Row | Sequence | soluble on expression in E. coli
1 | MSLTLSPTTIFPARCIHTMNATQPRATHVAVREGRILDVGDASLREAWPDAVVDSRFSDKVLLPGLIEGHSHLLEGGMWRFVYVGYYDRRGPDGRVWPGLKSYEAVIERLRAAEALMPDAQAPLLAWGFDPIHFGGQRMTTCHLDQVSKTRRIVVLHASVHLLNVNTAMLRQADIHAGLRIDGIVRAADGTPTGELQEFAAMFMVFKHIGNVFFDAGQSEEGIRNFAKIAQQAGVTTATDLSHALADDMVDNLVRVTGEDDFPLRLVAAYSPMRDMNGRSVDRVVRATQRNTAKLHFGLVKLVIDGSIQGYTARVRWPGYHNGAPNGMWIIAPQQLRELLMEYHKAGLTIHIHTNGDEATEVAMDALESVLAEYPRWDHRHTLQHCQMADAAQFRRMARLGMCANLFANHLYFWGDAHYTDTLGPARAFRMNAAKTALQAGVPISLHSDAPITPIGPLFTAWCAVNRVTAGGRILGSQERIPVMDALHAMTLGAAYTLKLDHLIGSIEVGKLADFAVLEADPLEVAPQDLAGIGIWGTVLGGRSFPAPQLSEGHHHHHH | soluble
2 | MSLTMREVAKAAGVSIKTVSNVVNDYEFVSQATRDKVNKAIAELGYTVNVSARNLRRGQTGIIGLAIPDLQMPYFAQLSSLVIEEAKKVGLRVIVEPTQYSRDGELEALHGSQQMMIDGLIYSPLELGQDDVEQLKVDYPLVLVGERIFTDQVDHIATENVEGAKRATQYLLTTGCRRVAVVGVHPGEKVGSAALRYQGYLEALEEAGVEFDDRLVVESGMWHRSDGVRAMNALLDSGVEVDGVVALNDMLASGVMHAIQMHGLHIPDDISVVGFDNSDDSQYLSPALTSIAPGLEAVARLSVKVLKERIDGRDPNADRPGEKVFRKVASSLVVRQSTEGHHHHHH | soluble
3 | MSLTNLHYTVKSLMRFKDKTVIISGGGNSAIDWANELEPIAKKVYLTYRKEALNGHEAQISQLLSSSATCLFHTTISKLIARDNKEVIEQVELTDHQTGEVTNLAVDEVIINHGYERDKSLLDQSEVTLDRIDDYYIAGTPTSATSVGGIYAAGDVLKHEGKLHLIAGAFQDAANAVNQAKQWIEPEAHQSAMVSSHNHVFKERNRELIRQMLKEGHHHHHH | not soluble
4 | MSLTNQVTYLFFHGMKQISEHLFTTEEQAIIARSKAEGSYMKAPNGQATNLNKKQWAQVRTRAFREWFGDWENNPDEASKVRDANGEPLVVYHGTPISRDQAADRSKFRIADDWEIQTINAPFHTFRGGAYNGLIFTSLTEEKARSIGETRSMSIPDSEDGREQWTTDSYVYDLFVNARQPFDVKNPNAVKDILDALEGQLTAYDFYLGMEVPVSRKEAEKILEGGNSWRVVETPSMQEIIRSRGYDAIHALDEGVQYMAVFAPNQLKASGKYLYSERNTGVFSPGNNDIRFREVHHGVPASFTGYRSMKTETVRNDNIPAVLAALREKLEDTEQEWQDRILDYIAENYPTQTTVSAQTRSPEGLKEREAMKEGHHHHHH | soluble
5 | MSLTPGRFLGWENADTASRTASDAIAVMDRRTWQALTTGHVELPCRRIHAGLWFRLLRTLLDELNTPLSACGTYAGYLRQVWQGCGHPLRAGQSLWRPYETLNPAIRLQMLEAAATAISLIEVRDISPPGEHAKLFWSELQTGFTSGLPAKPPKPEPVNHWQRAVQAISEAIIEARHDPETARSLFAMASYGRRDPASLEQLRATFAKEGIPPEFLSHYEADGPFACLRQNDGLSDKEGHHHHHH | not soluble
6 | MSLTPPLAPKTVAALHRLGIRTLEELRQNGSVKAFLLLKASGLTLTKSTLWQLESLLDGTPPQEMSQAHKARLLAELKNHPPVAAFPPQEEMEHFMCEALRQAEQSSADGEIPVGAVIVSDGKIIASAHNTCIADCNVSRHAEINALAQAGREIQNYRLDGCDIYITLEPCAMCASALIQARIRRVIYGAAEPKTGAAGSIVNLFADKRLNTHTAIRGGILQEECRAVLSRFFQNKREGHHHHHH | soluble
7 | MSLTQMNYAKEGIFTKEMQIVAQKENLSKDFLLENIACGKIIIPANINHKSLDPNGIGFGLRTKVNVNLGVSNDCVDYSEEMKKVELAHKFGIEAIMDLSNYGKTSRFRDELVNVSKAMIGTVPVYDAVGFLEKDLKQINAKDFLDVVYHHAKSGVDFMTIHAGINSRAAHIFKQSKRLTNIVSRGGSVLYAWMMMKDAENPFFEYYDDLLDICLKYDVTLSLGDALRPGSTHDASDGAQISELIELSLLTQRAWDVGIQVMIEGPGHMAINEIEANMQLEKRLCKGAPFYVLGPLVTDIGAGYDHISGAIGGAVAAASGADMLCYVTPAEHLRLPNLEDVREGIVATKIAAHAGDIAKLPKERARDDEMSKARQEIDWEKMFKLAIDGEKAKKMFNERRPDDLNSCSMCGKMCAMNTMNQILKGEDVSLAEGHHHHHH | soluble
8 | MSLTQRITMEDIARQSGVSLATVSLVLRDKPGINDETRRRVLDIARDLGYRKRLNHEKLVSQSLHNAGVIVKASIGDDSPLTNPFYAPIVAGIEAACRKMHINLMYATVPVDMDNHPQEMPRLLSEDHLDGVLLVGAFADATITKLLQREGIPAVLVDGYSHEHVYDSVVSDNFRAAYEAVSYLISYGHRHIGLIGTTKEAYPSIAERRKGYIQALTDHGIHDQYFGDCLLTMHEGSDTSSILLQRHPQITALFCANDMMAIGATQAARALHRQIPQDLSIIGFDNIDLAQHVAPALTTMHVDKVSMGRFAVQLLANRAEYPDQAPATVSLRPRLLERQSVQREGHHHHHH | soluble
9 | MSLTQSSKLIAVIVANIDDYFSTELFKGISSILESRGYIGVLFDANADIEREKTLLRAIGSRGFDGLILQSFSNPQTVQEILHQQMPVVSVDREMDACPWPQVVTDNFEAAKAATTAFRQQGYQHVVVLTSELELSRTRQERYRGILAAAQDVDVLEVSESSYNHSEVHQRLTQLITQNDQKTVAFALKERWLLEFFPNLIISGLIDNQTVTATGFADTDFIRRMEPKLTLITQNPFLMGASSAEIMLRQLAGEKVAPEKMVIPAKLQEGHHHHHH | soluble
10 | MSLTREAYHRLTPLPHPGGRLFIKPGARGYRDPVHDLLQKTVEPFGERALDLNPGVGWGSLPLEGRMAVERLETSRAAFRCLTASGLQARLALPWEAAAGAYDLVVLALPAGRGTAYVQASLVAAARALRMGGRLYLAGDKNKGFERYFKEARALLGYGVVVRREGPYRVALLEKEKEAPPLPSLWRAFSARILGAEYTFHHLPGVFSAGKVDPASLLLLEALQERLGPEGVRGRQVLDLGAGYGALTLPLARMGAEVVGVEDDLASVLSLQKGLEANALKAQALHSDVDEALTEEARFDIIVTNPPFHVGGAVILDVAQAFVNVAAARLRPGGVFFLVSNPFLKYEPLLEEKFGAFQTLKVAEYKVLFAEKRGRHHHHHH | soluble
11 | MSLTSDKIFFHHLDNLRPSLTPVKELKEPVGQIVCTDKGILAVEQNKVLIPPAWNKTFAWGYADLSCRLGTYESDKAVTVYECLSEWGQILCAVCPNPKLVITGGTSTVVCVWEMGTSKEKAKPLTLKQALLGHTDTVTCATASLAYHIIVSGSRDRTCIIWDLNKLSFLTQLRGHRAPVSALCINELTGDIVSCAGTYIHVWSINGNPIVSVNTFTGRSQQIVCCCMSEMNEWDTQNVIVTGHSDGVVRFWRMEFLQVPETPAPEPVEDLEMQEGCPEAQIGQQAQDDDSSDSETEEPSVSQDPKDTSSQPSSTSHRPRAASCRATATWCTDSGSDDSRRWSDQLSLDEKDGFIFVNYSEGQTRAHLQGPLAHPHPNPIEARSYSRLKPGYRWERQLVFRSKLTMHTAFDRKDNTHPAEVTALGVSKDHSRILVGDSRGRVFSWSVSDQPGRSAADHWVKDEGGDSCSGCSVRFSLTERRHHCRNCGQLFCQKCSRFQSEIKRLKISSPVRVCQNCYYSLQHERGAEDGPRNCEGHHHHHH | not soluble
12 | MSLTSYALLHTQRVTAKNGEVFTISPDLWERNQQQQSLLLRYFALPLKEENNRLWLGVDSLSNLSACETIAFITGKPVEPILLESSQLKELLQQLTPNQMQVEEQVEGHHHHHH | soluble
13 | MSLTSYHSHPPKAYRRFESVCTQAPNAIAVVDEGKLVTYQQLQTQVLERSEALIRQGLADHPYMPLMANRCLEYLITMLACCKLGITYVSIEPGTPSKRLIAVLEQLGCNHLLLLGQPTDLRPDPTLTCFRLDDCGTLCYDGPALRPPIRRRLDDASVITVMFTSGTTGLPKGVRISHDGLLNLVDNVQQQVQGKPRSYVHHSSIGFDAALFEVWVPLLTGACVTLQPGAFNIDALDHCVRAASCDVLLLTTSLFHLVAQHRLSMLDAVRVLYVGGEVLKPVHARALLLANPRITLVNGYGPTENTVFSTWYSLNKPEDAERDVMPIGQFLHQVYGKIVDAKLQEVEVGTPGELLLTGANLALGYLDDALTQTRFLQLPEGTYYRTGDYVIEDEHGMLFYQGRIDEQVKIKGFRVEIAEVEHALTQLPGVAQAVVQAHVMNDLEKSLHAFIVLRHGSPTIEESKLMSLLGDRLPHYMVPRRIHYLAELPLTANGKVDKRSLQPPEKAAAAPPQAGSAVLDIWSGILGTRNLQLEHSIYGYGASSLSVVMAHSRINEILGRTTPFDEVARLSTFQEWVQYYATHEDPVTSLRSQHGNEGHHHHHH | not soluble
14 | MSLTTDVKDELSRLVVKSVSARRAEVTSLLRFAGGLHIVGGRVVVEAELDLGSIARRLRKEIFELYGYTAVVHVLSASGIRKSTRYVLRVANDGEALARQTGLLDMRGRPVRGLPAQVVGGSIDDAEAAWRGAFLAHGSLTEPGRSSALEVSCPGPEAALALVGAARRLGVGAKAREVRGADRVVVRDGEAIGALLTRMGAQDTRLVWEERRLRREVRATANRLANFDDANLRRSARAAVAAAARVERALEILGDTVPEHLASAGKLRVEHRQASLEELGRLADPPMTKDAVAGRIRRLLSMADRKAKVDGIPDTESVVTPDLLEDAEGHHHHHH | soluble
15 | MSLTTELGRVLVTGGAGFVGANLVTTLLDRGHWVRSFDRAPSLLPAHPQLEVLQGDITDADVCAAAVDGIDTIFHTAAIIELMGGASVTDEYRQRSFAVNVGGTENLLHAGQRAGVQRFVYTSSNSVVMGGQNIAGGDETLPYTDRFNDLYTETKVVAERFVLAQNGVDGMLTCAIRPSGIWGNGDQTMFRKLFESVLKGHVKVLVGRKSARLDNSYVHNLIHGFILAAAHLVPDGTAPGQAYFINDAEPINMFEFARPVLEACGQRWPKMRISGPAVRWVMTGWQRLHFRFGFPAPLLEPLAVERLYLDNYFSIAKARRDLGYEPLFTTQQALTECLPYYVSLFEQMKNEARAEKTAATVKEGHHHHHH | soluble
16 | MSLTTETRSLYSQLPAIDRLLRDSSFLSLRDTYGHTRVVELLRQMLDEAREVIRGSQTLPAWCENWAQEVDARLTKEAQSALRPVINLTGTVLHTNLGRALQAEAAVEAVAQAMRSPVTLEYDLDDAGRGHRDRALAQLLCRITGAEDACIVNNNAAAVLLMLAATASGKEVVVSRGELVEIGGAFRIPDVMRQAGCTLHEVGTTNRTHANDYRQAVNENTALLMKVHTSNYSIQGFTKAIDEAELVALGKELDVPVVTDLGSGSLVDLSQYGLPKEPMPQELIAAGVSLVSFSGDKLLGGPQAGIIVGKKEMIARLQSHPLKRALRADKMTLAALEATLRLYLHPEALSEKLPTLRLLTRSAEVIQIQAQRLQAPLAAHYGAEFAVQVMPCLSQIGSGSLPVDRLPSAALTFTPHDGRGSHLESLAARWRELPVPVIGRIYDGRLWLDLRCLEDEQRFLEMLLKEGGSHHHHHH | soluble
17 | MSLTTHGKPVLVATDLSARTDRAVDRATQLAGEWGVRLIVLHAIEPDSRLHARPELANQAMREVLADPEADVDILPALDLAPTAIVEAAKSADCGLIVTGVARFNHVGDYFIGTAVDHVVRHATVPVLVVKQRPHNAYRTIVVATDYSSCSRLALLTAAEFFPDAAIHLVHAYHVPYEAWLRSDEVREDVTREAQRELDAFVLDPAIPANVRQRISAKLVYGETHTVLSSTAYELGADLLVLGTHGSGGYFAAVMGRMAESLLRCADIDTLVVREIGSTGSEGHHHHHH | soluble
